{"source": "patent US20170291930A1", "about": "(UNIVERSITY OF MARYLAND BALTIMORE, published 2017)", "note": "No end group written: not given here."}
{"molecular_target": "purified recombinant Sap9 (C. albicans secreted aspartic protease 9) (Candida albicans)", "experiment": "cell-based or functional assay", "units": {"intact peptide remaining after 2 h at 37 C with 3.13 ug/mL Sap9 (gel densitometry)": "%", "intact peptide remaining after 2 h with 6.25 ug/mL Sap9": "%"}}
{"binder": "DSHAKRHHGYKRKFHEKHHSHRGY (also: hydrochloride salt)", "note": "[parent Hst-5 peptide (Histatin-5)]", "intact peptide remaining after 2 h at 37 C with 3.13 ug/mL Sap9 (gel densitometry)": 47}
{"binder": "DSHAKRHHGYRRKFHEKHHSHRGY", "note": "[Hst-5 synthetic peptide K11R]", "intact peptide remaining after 2 h with 6.25 ug/mL Sap9": 20}
{"binder": "DSHAKRHHGYKRKFHERHHSHRGY", "note": "[Hst-5 synthetic peptide K17R]", "intact peptide remaining after 2 h at 37 C with 3.13 ug/mL Sap9 (gel densitometry)": 82, "intact peptide remaining after 2 h with 6.25 ug/mL Sap9": "> 60"}
{"binder": "DSHARRHHGYKRKFHEKHHSHRGY", "note": "[Hst-5 synthetic peptide K5R]", "intact peptide remaining after 2 h with 6.25 ug/mL Sap9": 4.5}
{"binder": "DSHAKRHHGYKRKFHELHHSHRGY", "note": "[Hst-5 synthetic peptide K17L]", "intact peptide remaining after 2 h at 37 C with 3.13 ug/mL Sap9 (gel densitometry)": 77, "intact peptide remaining after 2 h with 6.25 ug/mL Sap9": "> 60"}
